Source: the supplement of paper PMC7125110
± gives the standard error. Fewer inactive variants are shown than the library holds.

B1: glmS ribozyme (parent)
chain: AUAAAAGCGCCAGAACUACAGAAAUGUAGUUGACGAGGAGGAGGUUUAUCGAAUUUUCGGCGGAUGCCUCCAAA

How the values were obtained:
Settings in all cases: with glucosamine-6-phosphate
glucosamine-6-phosphate [1] = variants of: B1; test: self-cleavage kobs at 640 uM GlcN6P; higher = faster cleavage; RNA array
How it was run: (§1)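 E. coli RNA polymerase transcribed barcoded ribozyme variants in situ on sequenced MiSeq chips, which were tracked via a hybridised Cy3 probe at 37 °C. Tiles were imaged over ~14 h after glucosamine-6-phosphate (40 μM to 10 mM) in HEPES/KCl/Mg(OAc)2 buffer was flowed in. Normalised per-tile medians were fit to one- or two-exponential decays for kobs, and kcat and KM came from weighted Michaelis–Menten fits.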

glucosamine-6-phosphate [2] = variants of: B1; test: self-cleavage kobs at 2500 uM GlcN6P; higher = faster cleavage; RNA array
How it was run: as §1

glucosamine-6-phosphate [3] = variants of: B1; test: self-cleavage kobs at 10000 uM GlcN6P; higher = faster cleavage; RNA array
How it was run: as §1

| Variant | self-cleavage kobs at 640 uM GlcN6P (glucosamine-6-phosphate [1]) [s⁻¹] | self-cleavage kobs at 2500 uM GlcN6P (glucosamine-6-phosphate [2]) [s⁻¹] | self-cleavage kobs at 10000 uM GlcN6P (glucosamine-6-phosphate [3]) [s⁻¹] |
| --- | --- | --- | --- |
| C34A G35U A42C | < 1e-05 |  |  |
| A14U G29C A64G | < 1e-05 |  |  |
| U31A G66U C70U | 0.00031 ± 6.9e-05 | 0.000329 ± 6.7e-05 |  |
| C8A C50G C61A U69G | 7.27e-05 ± 2.2e-05 | 6.55e-05 ± 2.7e-05 |  |
| U49G C68G U69G | 5.67e-05 ± 2.1e-05 |  |  |
| C11A U31C A42C | < 1e-05 |  |  |
| U30A U45G | 0.000279 ± 6.7e-05 | 0.000752 ± 0.00013 |  |
| G9A U46C C67U | < 1e-05 |  |  |
| G7U G35C A39U U65C | < 1e-05 |  |  |
| A15G G38A G66U | < 1e-05 |  |  |
| G9U A36C G43U | < 1e-05 | < 1e-05 |  |
| A48G A53C C58U G59U | < 1e-05 |  |  |
| U45A A48C G60U C67U | < 1e-05 |  |  |
| A14G A36U G41A | < 1e-05 | < 1e-05 | < 1e-05 |
| A42C G60C C70U | < 1e-05 | < 1e-05 | < 1e-05 |
| G29C A33G C68G | 6.58e-05 ± 3e-05 |  |  |
| G9C G29A G62A | < 1e-05 |  |  |
| U31G G32A U54C | 0.000129 ± 3.8e-05 | 0.000702 ± 0.00023 |  |
| C11A A36G C50A A64C C68A | < 1e-05 |  |  |
| G41U A53U U56G G66A | 5.34e-05 ± 1.9e-05 | 0.000221 ± 4.9e-05 |  |
| C11U U54G G59A | 0.00194 ± 0.00054 | 0.00627 ± 0.002 |  |
| G29C U30C G66U | < 1e-05 |  |  |
| U49C G51A | < 1e-05 |  | < 1e-05 |

| Variant | self-cleavage kobs at 640 uM GlcN6P (glucosamine-6-phosphate [1]) [s⁻¹] | self-cleavage kobs at 2500 uM GlcN6P (glucosamine-6-phosphate [2]) [s⁻¹] | self-cleavage kobs at 10000 uM GlcN6P (glucosamine-6-phosphate [3]) [s⁻¹] |
| --- | --- | --- | --- |
| A6G A36U A42G G44U G60C | < 1e-05 |  |  |
| C10U A36G C58U | < 1e-05 |  |  |
| A36G A39G G40U | < 1e-05 | < 1e-05 | < 1e-05 |
| G40U G41U C68U | < 1e-05 | < 1e-05 |  |
| G13U G38U | < 1e-05 |  |  |
| G35C G60A C71U | < 1e-05 |  |  |
| C16G U54A U65G | 0.000305 ± 0.00011 | 0.000707 ± 0.00023 |  |
| G29U G43C U56C | < 1e-05 |  |  |
| A6U C8A C11U C50G | 0.000402 ± 0.00018 | 0.000125 ± 4.7e-05 |  |
| C16U A33G C68G | 5.07e-05 ± 2.3e-05 |  |  |
| G7U C34U A52U | < 1e-05 | < 1e-05 |  |
| G29U A33C U49G A64U | < 1e-05 |  |  |
| G59A C61A | < 1e-05 | < 1e-05 |  |
| A48U G59C C68G | < 1e-05 |  |  |
| U45G U46C G59U U65G U69G | < 1e-05 | < 1e-05 |  |
| C16U G21U G35U C70A | 7.72e-05 ± 2.8e-05 |  |  |
| A36U G40U A42G | < 1e-05 |  |  |
| G35U A39U G62A | < 1e-05 | < 1e-05 |  |
| A33U G38U | < 1e-05 | < 1e-05 | < 1e-05 |
| G35A A39C U47C U56G | < 1e-05 |  |  |
| G9A U47A C70U | < 1e-05 |  |  |
| U46C A48U C50G G51U | < 1e-05 | < 1e-05 | < 1e-05 |
| A12C A64C G66C | < 1e-05 |  | < 1e-05 |

| Variant | self-cleavage kobs at 640 uM GlcN6P (glucosamine-6-phosphate [1]) [s⁻¹] | self-cleavage kobs at 2500 uM GlcN6P (glucosamine-6-phosphate [2]) [s⁻¹] | self-cleavage kobs at 10000 uM GlcN6P (glucosamine-6-phosphate [3]) [s⁻¹] |
| --- | --- | --- | --- |
| A12U U31G U45G A53U | 0.00024 ± 6.1e-05 | 0.00101 ± 0.00033 |  |
| G37U C70G C71A | 5.1e-05 ± 1.4e-05 |  |  |
| A6G U56C C61G | < 1e-05 | < 1e-05 |  |
| C8G G35A C70G | < 1e-05 |  |  |
| A15U A36C G44U C58G G59C C61U G63U U69A | < 1e-05 |  |  |
| G41U A52C U65A | < 1e-05 |  |  |
| C11U U65G C67G | 0.000877 ± 0.00023 |  | 0.000136 ± 2.6e-05 |
| C34A G35A U65G | < 1e-05 |  |  |
| G60A C61U C70U | < 1e-05 | < 1e-05 |  |
| A36C G41U A53G | < 1e-05 |  |  |
| G13C G59A | < 1e-05 |  | < 1e-05 |
| G44A A53U U54G C61U | < 1e-05 |  |  |
| C16A U30G G35A C50A | < 1e-05 |  | < 1e-05 |
| A6U C8A C50U | < 1e-05 |  |  |
| C16A G43U | < 1e-05 |  | < 1e-05 |
| A6U C34U G40C G59C | < 1e-05 |  |  |
| G32A G44U C67U | 0.000148 ± 2.8e-05 | 0.000244 ± 5.3e-05 |  |
| U30C G43A C71U | < 1e-05 |  |  |
| G51U G63C G66U U69A C70A | < 1e-05 |  |  |
| U45G A52C U55C C70G | < 1e-05 | < 1e-05 |  |
| A6U G43U C61U C71U | < 1e-05 | < 1e-05 |  |
